One block for each binder: values may come before it.
How the values were obtained:
Settings in all cases: both partners purified
[1] = target: T1, linear tetra-ubiquitin (Ub4), M1-linked (UniProt P0CG48 1-76; P0CG48 1-76; P0CG48 1-76; P0CG48 1-76); test: SEC; Superose6 Increase 10/300 GL; 25 mM Tris–HCl pH 8.0, 250 mM NaCl, 2 mM DTT, 5% glycerol; 0.2 ml/min, 22 °C; peak fractions on Coomassie-stained SDS-PAGE
T1 construct: ubiquitin, copy 1 of four moieties covalently linked N-terminal to C-terminal on one chain (M1 linked); ubiquitin, copy 2 of four; ubiquitin, copy 3 of four; ubiquitin, copy 4 of four; also called linear poly-Ub; methionine-linked Ub4 chain; source: recombinant (pET24d construct), purified; not shown: His6, N-terminal, kept
T1 sequence (P0CG48 1-304, one chain of several): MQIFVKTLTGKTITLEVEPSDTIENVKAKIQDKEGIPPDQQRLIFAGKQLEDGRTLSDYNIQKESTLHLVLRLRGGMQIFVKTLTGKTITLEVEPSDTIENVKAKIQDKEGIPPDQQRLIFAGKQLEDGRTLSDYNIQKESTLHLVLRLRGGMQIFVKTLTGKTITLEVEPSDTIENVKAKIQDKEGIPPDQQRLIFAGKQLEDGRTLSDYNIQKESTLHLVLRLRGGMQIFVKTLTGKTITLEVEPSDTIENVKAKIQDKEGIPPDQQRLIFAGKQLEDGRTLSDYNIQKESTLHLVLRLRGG

[2] = target: T1, linear tetra-ubiquitin (Ub4), M1-linked; test: pull-down; Ub4 recovered with GST-NEMO^241–419 from mixtures with HA-IKK2 HEK293T lysate, with or without TAT peptides (200–25 μM), 2 h at 4 °C; Western blot
[3] = target: T1, linear tetra-ubiquitin (Ub4), M1-linked; test: pull-down; purified GST-NEMO fusions mixed with purified IKK proteins in the presence of Ub4, 1 h at 4 °C, then glutathione–agarose beads 2 h at 4 °C; 25 mM Tris–HCl pH 7.5, 150 mM NaCl, 1 mM EDTA, 0.5% NP-40, 0.55% Triton X-100, 5% glycerol, 1 mM DTT; four washes; Western blot

B1: GST-NEMO^241–350 (domain or fragment, human, UniProt Q9Y6K9 241-350, looked up)
chain: YDNHIKSSVVGSERKRGMQLEDLKQQLQQAEEALVAKQEVIDKLKEEAEQHKIVMETVPVLKAQADIYKADFQAERQAREKLAEKKELLQEQLEQLQREYSKLKASCQES
notes: source: E. coli Rosetta (DE3), purified (glutathione–agarose); not shown: GST, N-terminal, kept
binding result [1]: binds

B2: GST-NEMO^241–419 (domain or fragment, human, UniProt Q9Y6K9 241-419, looked up)
chain: YDNHIKSSVVGSERKRGMQLEDLKQQLQQAEEALVAKQEVIDKLKEEAEQHKIVMETVPVLKAQADIYKADFQAERQAREKLAEKKELLQEQLEQLQREYSKLKASCQESARIEDMRKRHVEVSQAPLPPAPAYLSSPLALPSQRRSPPEEPPDFCCPKCQYQAPDMDTLQIHVMECIE
notes: also called CC2-ZF; source: E. coli Rosetta (DE3), purified (glutathione–agarose); not shown: GST, N-terminal, kept
binding result [2]: binds

B3: GST-NEMO^241–375 (domain or fragment, human, UniProt Q9Y6K9 241-375, looked up)
chain: YDNHIKSSVVGSERKRGMQLEDLKQQLQQAEEALVAKQEVIDKLKEEAEQHKIVMETVPVLKAQADIYKADFQAERQAREKLAEKKELLQEQLEQLQREYSKLKASCQESARIEDMRKRHVEVSQAPLPPAPAYL
notes: as for B1
binding result [1]: binds

B4: GST-NEMO^111–419 (domain or fragment, human, UniProt Q9Y6K9 111-419, looked up)
chain: KLDLKRQKEQALREVEHLKRCQQQMAEDKASVKAQVTSLLGELQESQSRLEAATKECQALEGRARAASEQARQLESEREALQQQHSVQVDQLRMQGQSVEAALRMERQAASEEKRKLAQLQVAYHQLFQEYDNHIKSSVVGSERKRGMQLEDLKQQLQQAEEALVAKQEVIDKLKEEAEQHKIVMETVPVLKAQADIYKADFQAERQAREKLAEKKELLQEQLEQLQREYSKLKASCQESARIEDMRKRHVEVSQAPLPPAPAYLSSPLALPSQRRSPPEEPPDFCCPKCQYQAPDMDTLQIHVMECIE
notes: also called truncated NEMO (lacking the KBD); source: E. coli Rosetta (DE3), purified (glutathione–agarose); not shown: GST, N-terminal, kept
binding result [3]: binds

Results, then the binder that gave them:

binding result [1]: binds
B5: GST-NEMO^241–390 (domain or fragment, human, UniProt Q9Y6K9 241-390, looked up)
chain: YDNHIKSSVVGSERKRGMQLEDLKQQLQQAEEALVAKQEVIDKLKEEAEQHKIVMETVPVLKAQADIYKADFQAERQAREKLAEKKELLQEQLEQLQREYSKLKASCQESARIEDMRKRHVEVSQAPLPPAPAYLSSPLALPSQRRSPPE
notes: as for B1

binding result [1]: binds
B6: GST-NEMO^241–383 (domain or fragment, human, UniProt Q9Y6K9 241-383, looked up)
chain: YDNHIKSSVVGSERKRGMQLEDLKQQLQQAEEALVAKQEVIDKLKEEAEQHKIVMETVPVLKAQADIYKADFQAERQAREKLAEKKELLQEQLEQLQREYSKLKASCQESARIEDMRKRHVEVSQAPLPPAPAYLSSPLALPS
notes: as for B1

Reference: publication PMC9035715, “Regulatory subunit NEMO promotes polyubiquitin-dependent induction of NF-κB through a targetable second interaction with upstream activator IKK2” (The Journal of Biological Chemistry, 2022)
